T1: CD22 (UniProtKB-P20273) on CD22(+) cells (human, UniProt P20273 20-847)
T1 construct: Endogenous CD22 on the NALM6 and Raji cell lines; also called SIGLEC-2; BL-CAM
T1 sequence: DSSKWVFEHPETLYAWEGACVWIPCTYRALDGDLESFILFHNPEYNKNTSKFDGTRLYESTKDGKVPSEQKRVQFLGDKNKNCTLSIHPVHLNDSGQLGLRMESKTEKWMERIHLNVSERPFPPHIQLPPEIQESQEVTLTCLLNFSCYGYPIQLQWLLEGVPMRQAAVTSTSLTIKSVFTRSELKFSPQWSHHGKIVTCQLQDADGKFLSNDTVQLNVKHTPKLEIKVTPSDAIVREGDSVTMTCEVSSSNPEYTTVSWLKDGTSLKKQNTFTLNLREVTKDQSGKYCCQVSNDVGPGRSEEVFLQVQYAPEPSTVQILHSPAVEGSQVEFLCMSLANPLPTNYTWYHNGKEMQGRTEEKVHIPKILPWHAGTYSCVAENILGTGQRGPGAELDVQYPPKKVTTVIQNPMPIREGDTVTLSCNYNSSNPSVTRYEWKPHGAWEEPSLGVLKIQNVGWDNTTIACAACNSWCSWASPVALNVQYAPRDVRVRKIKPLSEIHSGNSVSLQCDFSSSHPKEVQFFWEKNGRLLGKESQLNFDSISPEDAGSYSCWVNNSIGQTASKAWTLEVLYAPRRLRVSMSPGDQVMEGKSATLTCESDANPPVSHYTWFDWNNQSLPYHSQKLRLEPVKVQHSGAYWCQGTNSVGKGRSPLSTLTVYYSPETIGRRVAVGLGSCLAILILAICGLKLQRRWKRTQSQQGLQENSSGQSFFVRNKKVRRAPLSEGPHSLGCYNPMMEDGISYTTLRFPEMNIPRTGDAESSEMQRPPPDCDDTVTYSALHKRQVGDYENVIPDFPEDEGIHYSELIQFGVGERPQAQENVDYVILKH

T2: CD22 (antigen in the Biacore assay) (human, UniProt P20273 20-687, limits assumed)
T2 sequence: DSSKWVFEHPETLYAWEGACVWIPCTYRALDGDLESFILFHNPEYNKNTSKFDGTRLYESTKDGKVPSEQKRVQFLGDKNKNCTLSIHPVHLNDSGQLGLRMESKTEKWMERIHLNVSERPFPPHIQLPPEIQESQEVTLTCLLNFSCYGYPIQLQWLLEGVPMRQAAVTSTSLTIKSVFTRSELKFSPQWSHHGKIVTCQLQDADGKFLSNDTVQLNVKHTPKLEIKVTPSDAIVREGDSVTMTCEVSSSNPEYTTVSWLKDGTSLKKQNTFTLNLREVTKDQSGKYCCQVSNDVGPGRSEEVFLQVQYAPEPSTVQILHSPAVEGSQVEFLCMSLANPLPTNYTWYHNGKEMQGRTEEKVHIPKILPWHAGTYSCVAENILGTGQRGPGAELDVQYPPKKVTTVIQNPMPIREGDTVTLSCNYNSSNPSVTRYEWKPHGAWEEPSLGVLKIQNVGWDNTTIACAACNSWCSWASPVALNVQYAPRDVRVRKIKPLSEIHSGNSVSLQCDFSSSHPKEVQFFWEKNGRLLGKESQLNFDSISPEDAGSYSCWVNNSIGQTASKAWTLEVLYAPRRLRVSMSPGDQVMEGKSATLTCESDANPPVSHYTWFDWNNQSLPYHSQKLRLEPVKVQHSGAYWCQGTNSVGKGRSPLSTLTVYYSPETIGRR


Tests used:
[1] = target: T1, CD22 (UniProtKB-P20273) on CD22(+) cells; experiment: flow cytometry (FACS) on CD22(+) NALM6 cells, detected with an anti-human Fc second antibody
Experimental: The binding of bispecific CD22-CD3 IgG-scFv antibodies to NALM6 CD22(+) leukemic cells was assayed using FACS. CD22(−) MOLM13 AML cells were used as a negative control for CD22 expression, and anti-CD3 humanized OKT3 (huOKT3) was used as a negative antibody control. […] In contrast, neither the chimeric LL2 IgG+huOKT3 scFv nor the huOKT3 antibody stained the CD22(−) MOLM13 AML cells.

[2] = target: T2, CD22 (antigen in the Biacore assay); experiment: SPR (Biacore) at 37° C
[3] = target: T1, CD22 (UniProtKB-P20273) on CD22(+) cells; experiment: flow cytometry on CD22(+) NALM6 cells

Row | Binder | binding result [1] | Kd [2] [pM] | koff [2] [s⁻¹] | kon [2] [M⁻¹ s⁻¹] | MFI (FACS NALM6) [3]
1 | chimeric anti-CD22-CD3 BsAb (chLL2 x CD3 BsAb) (bispecific antibody, IgG-scFv format: huOKT3 scFv fused to the C-terminus of the LL2 IgG1 light chain; also called chimeric LL2 IgG+huOKT3 scFv) heavy: not shown light: DIQLTQSPSSLAVSAGENVTMSCKSSQSVLYSANHKNYLAWYQQKPGQSPKLLIYWASTRESGVPDRFTGSGSGTDFTLTISRVQVEDLAIYYCHQYLSSWTFGGGTKLEIKRTVAAPSVFIFPPSDEQLKSGTASVVCLLNNFYPREAKVQWKVDNALQSGNSQESVTEQDSKDSTYSLSSTLTLSKADYEKHKVYACEVTHQGLSSPVTKSFNRGECTSGGGGSGGGGSGGGGSQVQLVQSGGGVVQPGRSLRLSCKASGYTFTRYTMHWVRQAPGKCLEWIGYINPSRGYTNYNQKFKDRFTISRDNSKNTAFLQMDSLRPEDTGVYFCARYYDDHYSLDYWGQGTPVTVSSGGGGSGGGGSGGGGSGGGGSGGGGSGGGGSDIQMTQSPSSLSASVGDRVTITCSASSSVSYMNWYQQTPGKAPKRWIYDTSKLASGVPSRFSGSGSGTDYTFTISSLQPEDIATYYCQQWSSNPFTFGCGTKLQITR | binds | – | – | – | –
2 | humanized LL2 L2 + H1 (antibody, V domains shown, Human IgG1 frameworks; also called H1L2) VH: QVQLVESGAEVKKPGASVKMSCKASGYTFTSYWLHWIRQAPGQRLEWIGYINPRNDYTKYSQKFQGRATITADKSASTAYMELSSLRSEDTAVYYCARRDITTFYWGQGTTLTVSS VL: DIVLTQSPDSLAVSLGERVTMNCKSSQSVLYSANHKNYLAWYQQKPGQSPKLLIYWASTRESGVPDRFSGSGSGTDFTLTISSVQAEDVAIYYCHQYLSSWTFGGGTKLEIK | – | 403 | 0.00219 | 5.43e+06 | 40
3 | humanized LL2 L1 + H12 (antibody, V domains shown, Human IgG1 frameworks; also called H12L1; VL1-VH12) VH: QVQLQQSGAEVKKPGASVKMSCKASGYTFTSYWLHWVRQAPGQRLEWMGYINPRNDYTEYNQNFKDRVTITADTSASTAYMELSSLRSEDTAVYYCARRDITTFYWGQGTTLTVSS VL: DIVLTQSPDSLAVSAGERVTMNCKSSQSVLYSANHKNYLAWYQQKPGQPPKLLIYWASTRESGVPDRFSGSGSGTDFTLTISSVQAEDVAIYYCHQYLSSWTFGGGTKLEIK | – | 2.05 | 5.88e-07 | 287000 | 39.2
4 | humanized LL2 L1 + H2 (antibody, V domains shown, Human IgG1 frameworks; also called H2L1) VH: QVQLQESGAEVKKPGASVKMSCKASGYTFTSYWLHWIRQAPGQRLEWIGYINPRNDYTKYSQKFQGRVTLTRDKSASTAYMELSSLRSEDTAVYYCARRDITTFYWGQGTTLTVSS VL: DIVLTQSPDSLAVSAGERVTMNCKSSQSVLYSANHKNYLAWYQQKPGQPPKLLIYWASTRESGVPDRFSGSGSGTDFTLTISSVQAEDVAIYYCHQYLSSWTFGGGTKLEIK | – | 1720 | 0.00478 | 2.77e+06 | 32.8
5 | humanized LL2 L1 + H3 (antibody, V domains shown, Human IgG1 frameworks; also called H3L1) VH: QVQLQQSGAEVKKPGASVKVSCKASGYTFTSYWLHWIRQAPGQRLEWIGYINPRNDYTEYSQKFQGRATLTADTSASTAYMELSSLRSEDTAVYYCARRDITTFYWGQGTTLTVSS VL: DIVLTQSPDSLAVSAGERVTMNCKSSQSVLYSANHKNYLAWYQQKPGQPPKLLIYWASTRESGVPDRFSGSGSGTDFTLTISSVQAEDVAIYYCHQYLSSWTFGGGTKLEIK | – | 34.4 | 3.09e-06 | 89800 | 31.9
6 | humanized LL2 L1 + H4 (antibody, V domains shown, Human IgG1 frameworks; also called H4L1) VH: QVQLQQSGAEVKKPGASVKMSCKASGYTFTSYWLHWIRQAPGQRLEWMGYINPRNDYTEYNQKFQGRATITADKSASTAYMELSSLRSEDTAVYYCARRDITTFYWGQGTTLTVSS VL: DIVLTQSPDSLAVSAGERVTMNCKSSQSVLYSANHKNYLAWYQQKPGQPPKLLIYWASTRESGVPDRFSGSGSGTDFTLTISSVQAEDVAIYYCHQYLSSWTFGGGTKLEIK | – | 0.00191 | – | 154000 | 33.6
7 | humanized LL2 L1 + H5 (antibody, V domains shown, Human IgG1 frameworks; also called H5L1) VH: QVQLQESGAEVKKPGASVKVSCKASGYTFTSYWLHWVRQAPGQRLEWIGYINPRNDYTEYSQKFQGRATLTADTSASTAYMELSSLRSEDTAVYYCARRDITTFYWGQGTTLTVSS VL: DIVLTQSPDSLAVSAGERVTMNCKSSQSVLYSANHKNYLAWYQQKPGQPPKLLIYWASTRESGVPDRFSGSGSGTDFTLTISSVQAEDVAIYYCHQYLSSWTFGGGTKLEIK | – | 41 | 4.19e-06 | 102000 | 35.2
8 | humanized LL2 L1 + H6 (antibody, V domains shown, Human IgG1 frameworks; also called H6L1) VH: QVQLQQSGAEVKKPGASVKVSCKASGYTFTSYWLHWIRQAPGQRLEWMGYINPRNDYTEYNQNFKDRVTITRDTSASTAYMELSSLRSEDTAVYYCARRDITTFYWGQGTTLTVSS VL: DIVLTQSPDSLAVSAGERVTMNCKSSQSVLYSANHKNYLAWYQQKPGQPPKLLIYWASTRESGVPDRFSGSGSGTDFTLTISSVQAEDVAIYYCHQYLSSWTFGGGTKLEIK | – | 0.17 | 2.91e-08 | 171000 | 33.5
9 | humanized LL2 L1 + H10 (antibody, V domains shown, Human IgG1 frameworks; also called H10L1) VH: QVQLVQSGAEVKKPGASVKVSCKASGYTFTSYWLHWVRQAPGQRLEWMGYINPRNDYTEYNQNFKDRVTLTADKSASTAYMELSSLRSEDTAVYYCARRDITTFYWGQGTTLTVSS VL: DIVLTQSPDSLAVSAGERVTMNCKSSQSVLYSANHKNYLAWYQQKPGQPPKLLIYWASTRESGVPDRFSGSGSGTDFTLTISSVQAEDVAIYYCHQYLSSWTFGGGTKLEIK | – | 0.0435 | 7.67e-09 | 176000 | 32.7
10 | humanized LL2 L1 + H11 (antibody, V domains shown, Human IgG1 frameworks; also called H11L1; VL1-VH11) VH: QVQLVQSGAEVKKPGASVKMSCKASGYTFTSYWLHWVRQAPGQRLEWMGYINPRNDYTEYNQNFKDRATITADTSASTAYMELSSLRSEDTAVYYCARRDITTFYWGQGTTLTVSS VL: DIVLTQSPDSLAVSAGERVTMNCKSSQSVLYSANHKNYLAWYQQKPGQPPKLLIYWASTRESGVPDRFSGSGSGTDFTLTISSVQAEDVAIYYCHQYLSSWTFGGGTKLEIK | – | 0.0104 | 1.71e-09 | 164000 | 33.6
